Experimental data published in article PMC3717276, “Optimization and validation of mitochondria-based functional assay as a useful tool to identify BH3-like molecules selectively targeting anti-apoptotic Bcl-2 proteins” (BMC Biotechnology, 2013).

B1: Bad BH3 peptide (residues 103-128) (peptide)
peptide: NLWAAQRYGRELRRMSDEFVDSFKKG
B2: Noxa BH3 peptide (residues 18-43) (peptide)
peptide: PAELEVECATQLRRFGDKLNFRQKLL

Columns and labels:
[1] = biological target: Human Bcl-2 protein (isoform 2 construct), N-terminal 6xHis tagged recombinant protein (human); assay: fluorescence polarisation; competition: Mcl-1 (20 nM) or Bcl-2 (40 nM) pre-incubated with FAM-Bid (2 nM and 2.5 nM), tested BH3 peptide added, 2-3 h; 100 mM potassium phosphate, pH 7.5, 100 ug/ml bovine gamma globulin, 0.02% sodium azide; Ki calculated from IC50
[2] = biological target: Human Bcl-2 protein (isoform 2 construct), N-terminal 6xHis tagged recombinant protein (human); assay: SPR; competitive solution binding: protein (20 nM) pre-incubated with tested BH3 peptide for at least 30 min, injected over immobilised biotin-Bim BH3 peptide; response at 30 s of dissociation

Ki [1] | IC50 [2] | Binder
7.1 nM | 4.37 nM | B1
> 10000 nM | > 30000 nM | B2
